Reference: the supplement of paper PMC10567573

B1: STK38L (parent)
chain: RQLAYSTVGTPDYIAPEVFMQTGY

Variants of: B1
Test: protein stability index of a GFP-peptide fusion (GPS, HEK-293T) (PSI 1-6); higher = more stable
Settings: c terminus: a fixed tail appended
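Also: lentivirally expressed fusions sorted by FACS into six bins by GFP to DsRed ratio, PSI derived from sequencing read proportions per bin multiplied by bin number.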

| Variant | protein stability index |
| --- | --- |
| L3G | 2.74 |
| L3H | 2.43 |
| L3I | 2.24 |
| L3K | 2.68 |
| L3M | 2.72 |
| L3N | 2.56 |
| L3P | 2.44 |
| L3Q | 2.61 |
| L3R | 3.09 |
| L3S | 2.65 |
| L3T | 2.84 |
| L3V | 2.73 |
| L3W | 1.53 |
| L3Y | 2.41 |
| A4C | 2.14 |
| A4D | 2.38 |
| A4E | 2.8 |
| A4F | 1.89 |
| A4G | 2.86 |
| A4H | 2.61 |
| A4I | 1.77 |
| A4K | 3.29 |
| A4L | 2.69 |
| A4M | 2.6 |

| Variant | protein stability index |
| --- | --- |
| A4N | 2.52 |
| A4P | 2.39 |
| A4Q | 3.1 |
| A4R | 2.75 |
| A4S | 2.65 |
| A4T | 2.55 |
| A4V | 2.02 |
| A4W | 1.64 |
| A4Y | 2.17 |
| Y5A | 3.06 |
| Y5C | 2.38 |
| Y5D | 3.59 |
| Y5E | 3.13 |
| Y5F | 2.44 |
| Y5G | 3.03 |
| Y5H | 3.07 |
| Y5I | 2.83 |
| Y5K | 2.58 |
| Y5L | 2.84 |
| Y5M | 2.95 |
| Y5N | 3.26 |
| Y5P | 3.42 |
| Y5Q | 3.43 |
| Y5R | 2.81 |

| Variant | protein stability index |
| --- | --- |
| Y5S | 2.93 |
| Y5T | 2.51 |
| Y5V | 2.36 |
| Y5W | 2.13 |
| S6A | 1.95 |
| S6C | 1.84 |
| S6D | 2.55 |
| S6E | 3.3 |
| S6F | 1.65 |
| S6G | 2.32 |
| S6H | 2.63 |
| S6I | 1.78 |
| S6K | 2.43 |
| S6L | 2.08 |
| S6M | 1.79 |
| S6N | 2.46 |
| S6P | 2.44 |
| S6Q | 2.25 |
| S6R | 2.79 |
| S6T | 2.21 |
| S6V | 1.45 |
| S6W | 2.5 |
| S6Y | 1.77 |
| T7A | 2.76 |

| Variant | protein stability index |
| --- | --- |
| T7C | 2.07 |
| T7D | 2.26 |
| T7E | 3.02 |
| T7F | 1.62 |
| T7G | 2.62 |
| T7H | 2.44 |
| T7I | 2.04 |
| T7K | 2.41 |
| T7L | 2.1 |
| T7M | 1.84 |
| T7N | 2.51 |
| T7P | 3.26 |
| T7Q | 3.12 |
| T7R | 2.52 |
| T7S | 2.11 |
| T7V | 2.04 |
| T7W | 1.79 |
| T7Y | 2.07 |
| V8A | 2.59 |
| V8C | 1.49 |
| V8D | 3.27 |
| V8E | 3.29 |
| V8F | 2.18 |
| V8G | 2.76 |

| Variant | protein stability index |
| --- | --- |
| V8H | 2.92 |
| V8I | 2.58 |
| V8K | 2.98 |
| V8L | 2.37 |
| V8M | 2.87 |
| V8N | 2.41 |
| V8P | 2.51 |
| V8Q | 2.63 |
| V8R | 2.25 |
| V8S | 2.6 |
| V8T | 2.83 |
| V8W | 2.5 |
| V8Y | 1.74 |
| G9A | 2.63 |
| G9C | 1.97 |
| G9D | 3.15 |
| G9E | 2.71 |
| G9F | 2.27 |
| G9H | 2.42 |
| G9I | 2.17 |
| G9K | 2.24 |
| G9L | 3.14 |
| G9M | 2.59 |
| G9N | 2.62 |

| Variant | protein stability index |
| --- | --- |
| G9P | 2.6 |
| G9Q | 2.77 |
| G9R | 2.65 |
| G9S | 2.37 |
| G9T | 2.7 |
| G9V | 1.98 |
| G9W | 1.89 |
| G9Y | 2.9 |
| T10A | 2.88 |
| T10C | 2.18 |
| T10D | 2.16 |
| T10E | 2.89 |
| T10F | 1.73 |
| T10G | 3.01 |
| T10H | 2.36 |
| T10I | 1.3 |
| T10K | 2.17 |
| T10L | 1.96 |
| T10M | 2.61 |
| T10N | 2.05 |
| T10P | 2.48 |
| T10Q | 3.41 |
| T10R | 2.86 |
| T10S | 1.42 |

| Variant | protein stability index |
| --- | --- |
| T10V | 2.27 |
| T10W | 1.72 |
| T10Y | 1.72 |
| P11A | 2.64 |
| P11C | 2.57 |
| P11D | 2.36 |
| P11E | 3.13 |
| P11F | 1.85 |
| P11G | 3 |
| P11H | 2.58 |
| P11I | 2 |
| P11K | 2.59 |
| P11L | 2.2 |
| P11M | 2.18 |
| P11N | 2.78 |
| P11Q | 2.49 |
| P11R | 1.8 |
| P11S | 2.63 |
| P11T | 2.44 |
| P11V | 1.89 |
| P11W | 2.29 |
| P11Y | 2.57 |
| D12A | 2.21 |
| D12C | 1.98 |

| Variant | protein stability index |
| --- | --- |
| D12E | 2.43 |
| D12F | 1.98 |
| D12G | 2.11 |
| D12H | 2.54 |
| D12I | 1.81 |
| D12K | 2.31 |
| D12L | 2.43 |
| D12M | 2.59 |
| D12N | 2.76 |
| D12Q | 2.72 |
| D12R | 3 |
| D12S | 2.68 |
| D12T | 2.91 |
| D12V | 1.59 |
| D12W | 2.08 |
| D12Y | 1.82 |
| Y13A | 2.9 |
| Y13C | 3 |
| Y13D | 3.26 |
| Y13E | 3.29 |
| Y13F | 1.93 |
| Y13G | 3.08 |
| Y13H | 2.42 |
| Y13I | 3.12 |

| Variant | protein stability index |
| --- | --- |
| Y13K | 2.92 |
| Y13L | 2.15 |
| Y13M | 2.57 |
| Y13N | 3.57 |
| Y13P | 2.75 |
| Y13Q | 3.01 |
| Y13S | 4.05 |
| Y13T | 2.92 |
| Y13V | 2.33 |
| Y13W | 1.88 |
| I14A | 3.13 |
| I14C | 2.28 |
| I14D | 2.81 |
| I14E | 2.92 |
| I14F | 1.57 |
| I14G | 2.65 |
| I14H | 2.57 |
| I14K | 3.11 |
| I14L | 2.92 |
| I14M | 2.4 |
| I14N | 2.95 |
| I14P | 2.39 |
| I14Q | 2.66 |
| I14S | 3.12 |

| Variant | protein stability index |
| --- | --- |
| I14T | 2.69 |
| I14V | 2.54 |
| I14W | 1.95 |
| I14Y | 2.28 |
| A15C | 2.57 |
| A15D | 2.93 |
| A15E | 3.15 |
| A15F | 1.98 |
| A15G | 3.12 |
| A15H | 2.1 |
| A15I | 1.43 |
| A15K | 2.46 |
| A15L | 2.3 |
| A15M | 2.19 |
| A15N | 2.21 |
| A15P | 3.29 |
| A15Q | 3.4 |
| A15R | 2.27 |
| A15S | 2.78 |
| A15T | 2.4 |
| A15V | 2.28 |
| A15W | 1.58 |
| A15Y | 1.68 |
| P16A | 2.3 |

| Variant | protein stability index |
| --- | --- |
| P16C | 2.29 |
| P16D | 2.46 |
| P16E | 2.96 |
| P16F | 2.79 |
| P16G | 1.96 |
| P16H | 2.17 |
| P16I | 3.9 |
| P16K | 1.91 |
| P16L | 1.57 |
| P16M | 2.13 |
| P16N | 2.81 |
| P16Q | 2.35 |
| P16R | 2.12 |
| P16S | 2.16 |
| P16T | 1.82 |
| P16Y | 1.89 |
| E17A | 2.08 |
| E17C | 1.8 |
| E17D | 2.79 |
| E17F | 1.9 |
| E17G | 2.39 |
| E17H | 2.22 |
| E17I | 2.17 |
| E17K | 2.08 |

| Variant | protein stability index |
| --- | --- |
| E17L | 1.76 |
| E17M | 1.68 |
| E17N | 1.97 |
| E17P | 2.12 |
| E17Q | 2.22 |
| E17R | 2.71 |
| E17S | 2.21 |
| E17T | 1.98 |
| E17V | 1.83 |
| E17W | 1.44 |
| E17Y | 1.78 |
| V18A | 2.46 |
| V18C | 2.58 |
| V18D | 3.57 |
| V18E | 3.62 |
| V18F | 2.28 |
| V18G | 3.16 |
| V18H | 2.51 |
| V18I | 2.09 |
| V18K | 2.25 |
| V18L | 1.8 |
| V18M | 2.29 |
| V18N | 2.97 |
| V18P | 2.31 |

| Variant | protein stability index |
| --- | --- |
| V18Q | 3.1 |
| V18R | 2.66 |
| V18S | 3.06 |
| V18T | 2.73 |
| V18W | 1.92 |
| V18Y | 3.3 |
| F19A | 3.68 |
| F19C | 3.08 |
| F19D | 4.07 |
| F19E | 3.38 |
| F19G | 3.53 |
| F19H | 2.76 |
| F19I | 2.51 |
| F19K | 3.12 |
| F19L | 2.92 |
| F19M | 2.82 |
| F19N | 3.22 |
| F19P | 3.47 |
| F19Q | 3.11 |
| F19R | 3.81 |
| F19S | 2.78 |
| F19T | 3.61 |
| F19V | 2.71 |
| F19Y | 2.61 |

| Variant | protein stability index |
| --- | --- |
| M20A | 2.78 |
| M20C | 2.63 |
| M20D | 3.97 |
| M20E | 2.65 |
| M20F | 2.06 |
| M20G | 2.53 |
| M20H | 2.25 |
| M20I | 2.14 |
| M20K | 2.76 |
| M20L | 2.89 |
| M20N | 2.87 |
| M20P | 3.25 |
| M20Q | 4.34 |
| M20R | 2.43 |
| M20S | 3 |
| M20T | 2.85 |
| M20V | 3.1 |
| M20W | 1.95 |
| M20Y | 2.89 |
| Q21A | 2.88 |
| Q21C | 1.75 |
| Q21D | 3.06 |
